The record followed here is patent US20160082074A1.

In test [1] the target is human cyclophilin A (human) (UniProt P62937). Put plainly: cell-based or functional assay.
For test [2], the target named is calcineurin. Briefly: cell-based or functional assay.

human cyclophilin A (human), sequence (P62937 whole entry): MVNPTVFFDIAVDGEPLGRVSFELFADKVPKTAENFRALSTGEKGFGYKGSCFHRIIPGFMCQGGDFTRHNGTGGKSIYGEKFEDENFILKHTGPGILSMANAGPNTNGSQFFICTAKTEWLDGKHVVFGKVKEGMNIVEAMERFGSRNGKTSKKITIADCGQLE

On to cyclosporin A (peptide), for which, in test [1], the In vitro inhibition human CypA IC50 [nM] (protease-coupled PPIase assay) came to 9.1 nM.
Consider CypA/CsA complex, for which the In vitro inhibition CnA IC50 in test [2] was 0.05 µM.
